Tests used:
[1] = target: F-actin (rabbit skeletal muscle actin, polymerised) (rabbit, UniProt P68135 1-377); assay: co-sedimentation; F-actin co-sedimentation: rabbit skeletal muscle actin polymerized with 50 mM KCl, 2 mM MgCl2, 1 mM ATP; test protein added in F-actin buffer (with 5% glycerol or no glycerol), 30 min room temperature; 150,000xg, 4 °C, 1 h; SDS-PAGE, Coomassie, densitometry; KD by curve fitting; conditions: both partners purified
[2] = target: full-length human ILK (C346S; C422S), subunit of the coexpressed IPP complex (human, UniProt Q13418 1-452, C346S | C422S); assay: SEC; purified IPP complex (coexpressed in E. coli, co-purified by Ni affinity on His6-PINCH-1) on Superose 6 10/300 GL; conditions: both partners purified
Chain of full-length human ILK (C346S; C422S), subunit of the coexpressed IPP complex (Q13418 whole entry C346S/C422S, one chain of several): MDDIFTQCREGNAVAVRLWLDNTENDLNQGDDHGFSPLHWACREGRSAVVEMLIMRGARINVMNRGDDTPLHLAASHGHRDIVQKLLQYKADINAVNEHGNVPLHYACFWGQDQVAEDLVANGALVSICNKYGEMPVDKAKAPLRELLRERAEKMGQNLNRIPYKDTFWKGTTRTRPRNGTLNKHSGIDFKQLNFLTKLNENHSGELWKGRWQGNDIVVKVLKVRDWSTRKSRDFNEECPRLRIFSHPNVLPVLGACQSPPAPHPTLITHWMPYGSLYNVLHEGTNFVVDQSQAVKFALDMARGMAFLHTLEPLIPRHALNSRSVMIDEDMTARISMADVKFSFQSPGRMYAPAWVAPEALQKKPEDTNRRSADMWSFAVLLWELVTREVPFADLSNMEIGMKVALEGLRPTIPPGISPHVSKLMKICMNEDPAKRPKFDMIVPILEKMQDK

B1: α-Parvin-N (N-terminal region 1–91) as used in F-actin co-sedimentation (domain or fragment)
chain: MATSPQKSPSVPKSPTPKSPPSRKKDDSFLGKLGGTLARRKKAKEVSELQEEGMNAINLPLSPIPFELDPEDTMLEENEVRTMVDPNSRSD
notes: α-Parvin, human, N-terminal region; the text defines α-Parvin-N as 1-91; the methods list a GST-fused 1-89 and a hexahistidine-tagged 1-91 form; also called WT α-Parvin; source: E. coli, purified
Kd [1]: ~21 µM

B2: α-Parvin-N 5A (L37A/R39A/R40A/K41A/K42A) as used in F-actin co-sedimentation (domain or fragment)
chain: MATSPQKSPSVPKSPTPKSPPSRKKDDSFLGKLGGTAAAAAAAKEVSELQEEGMNAINLPLSPIPFELDPEDTMLEENEVRTMVDPNSRSD
notes: α-Parvin, human, N-terminal domain, residues 1-91 (both the GST-fused and the His6-tagged 5A forms are 1-91); source: E. coli, purified
Kd [1]: ~49 µM

B3: full-length human α-Parvin, subunit of the coexpressed IPP complex (natural protein, UniProt Q9NVD7 1-372, looked up)
chain: MATSPQKSPSVPKSPTPKSPPSRKKDDSFLGKLGGTLARRKKAKEVSELQEEGMNAINLPLSPIPFELDPEDTMLEENEVRTMVDPNSRSDPKLQELMKVLIDWINDVLVGERIIVKDLAEDLYDGQVLQKLFEKLESEKLNVAEVTQSEIAQKQKLQTVLEKINETLKLPPRSIKWNVDSVHAKSLVAILHLLVALSQYFRAPIRLPDHVSIQVVVVQKREGILQSRQIQEEITGNTEALSGRHERDAFDTLFDHAPDKLNVVKKTLITFVNKHLNKLNLEVTELETQFADGVYLVLLMGLLEGYFVPLHSFFLTPDSFEQKVLNVSFAFELMQDGGLEKPKPRPEDIVNCDLKSTLRVLYNLFTKYRNVE
binding result [2]: binds
